Experimental data taken from publication PMC5601406 (2017).

Target: SN (Staphylococcus nuclease scaffold protein) (Staphylococcus aureus, UniProt Q5HHM4)
Assay: ELISA

B1: SmpB (protein)
chain: MSKKNSKNKAGSNTIALNRSARHEYFIEEKIEAGLSLQGWEVKSLRAGKANISEAYVIFRDGEAYLFGSSFLPLQAASSHVVCDPTRTRKLLLSRRELDKLESLIARQGYTVVPLALYWKQCWVKVEIGLVKGKKEHDKREDTKAREWDREKARIMKNKHRG
With B1 the Kd was 1380 nM.
